Experimental data published in patent US20250145729A1 (DENALI THERAPEUTICS, published 2025).
Where a chain is given by its changes, count along the chain named. Numbers in names are those of the source. Like-named read-outs stand apart in the source and are kept apart here. Each block holds one binder with its values, some of them ahead of it.

Legend:
[1] = target: T1, circularly permuted human TfR apical domain (human); assay: Biacore SPR
T1 construct: TfR residues 326-379 stand N-terminal to 194-296, loop 297-325 deleted; also called huTfR Apical Domain
T1 chain: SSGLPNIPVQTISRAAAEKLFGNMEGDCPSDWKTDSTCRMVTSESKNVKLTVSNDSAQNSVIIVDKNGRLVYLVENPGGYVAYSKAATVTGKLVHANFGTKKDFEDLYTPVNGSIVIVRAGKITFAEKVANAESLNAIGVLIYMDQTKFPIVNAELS

[2] = target: T1, circularly permuted human TfR apical …; assay: method not named for this table (Biacore elsewhere)
[3] = target: T2, circularly permuted cyno TfR apical domain (cynomolgus monkey); assay: as above
T2 construct: same design as the human construct; also called cyTfR Apical Domain; cynomolgus TfR apical domain
T2 chain: T1 chain with R39K, S45N, N47S, R69G, Y108D, T109S, N153K, E155D

human CD98hc [4] = target: T3, human CD98hc (human, UniProt P08195 109-529); assay: SPR (Biacore)
T3 construct: also called huCD98hc; CD98 heavy chain
T3 sequence: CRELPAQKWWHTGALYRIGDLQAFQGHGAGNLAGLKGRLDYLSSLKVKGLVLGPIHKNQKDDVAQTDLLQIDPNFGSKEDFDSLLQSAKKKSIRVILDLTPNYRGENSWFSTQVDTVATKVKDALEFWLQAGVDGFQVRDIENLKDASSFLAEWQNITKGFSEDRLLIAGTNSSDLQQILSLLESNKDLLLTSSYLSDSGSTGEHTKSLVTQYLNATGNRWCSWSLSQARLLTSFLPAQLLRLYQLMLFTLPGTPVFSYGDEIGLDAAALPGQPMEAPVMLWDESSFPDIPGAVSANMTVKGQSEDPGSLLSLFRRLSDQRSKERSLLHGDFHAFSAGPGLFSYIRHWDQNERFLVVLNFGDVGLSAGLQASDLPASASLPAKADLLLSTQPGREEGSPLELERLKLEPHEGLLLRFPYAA
Description: Variants that bound with measurable affinity from this round of engineering are shown in Table A12 and the corresponding human binding affinity by surface plasmon resonance (SPR) using a Biacore™ machine are shown in Table 9B. Cell binding of the clones was also tested in HeLa cells for huCD98hc binding and CHO cells as a negative control.

cyno CD98hc = target: T4, cyno CD98hc (cynomolgus monkey); assay: SPR (Biacore)
T4 construct: also called cynomolgus CD98hc; cyCD98hc
Summary of the method: (§1)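 The values are Kd for CD98hc binding by engineered Fc polypeptides, determined by surface plasmon resonance on a Biacore instrument. Clones were tested as Fc-Fab fusions carrying anti-BACE1 Fabs, in bivalent form or in a monovalent knob/hole form with the CD98hc-binding site only on the knob chain.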

human CD98hc [5] = target: T3, human CD98hc; assay: SPR (Biacore); remark: listed apart in the source
Summary of the method: as §1

binding result [1]: no binding
B15: 6.5.11.5.42.2.d13 (Fc fusion)
chain: APELLGGPSVFLFPPKPKDTLMISRTPEVTCVVVDVSHEDPEVKFNWYVDGVEVHNAKTKPREEQYNSTYRVVSVLTVLHQDWLNGKEYKCKVSNKALPAPIEKTISKAKGQPREPQVYTLPPSRDELTKNQVSLTCLVKGFYPSDIAVEWFSDGSPENNYKTTPPVLDSDGSFFLYSKLTVDKSRWQQGNVFACEVMHEALHNHYTYKLLSLSPGK

Kd (cyno CD98hc): 2.7 µM
Kd (human CD98hc [5]): 0.7 µM
B19: LLS2.C.4 (Fc fusion)
chain: APELLGGPSVFLFPPKPKDTLMISRTPEVTCVVVDVSHEDPEVKFNWYVDGVEVHNAKTKPREEQYNSTYRVVSVLTVLHQDWLNGKEYKCKVSNKALPAPIEKTISKAKGQPREPQVYTLPPSRDELTKNQVSLTCLVKGFYPSDIAVAWNSRFELENNYKTTPPVLDSDGSFFLYSKLTVDKSRWQQGNIFACNVWHEALHNHYTFKNLSLSPGK
notes: Fc part only; also called LLB2.C.4

Kd (cyno CD98hc): 2.2 µM
Kd (human CD98hc [5]): 0.62 µM
B22: LLS2.C.15 (Fc fusion)
chain: B19 chain with A150K, E156Q, I192L
notes: Fc part only; also called LLB2.C.15

Kd (cyno CD98hc): 2.36 µM
Kd (human CD98hc [5]): 0.35 µM
B23: LLB2.10.8.14.4.N (Fc fusion)
chain: B19 chain with A150L, E156V, W198Y, Y206R, S212A
notes: Fc part only; changes read against LLB2-10-8

Kd (cyno CD98hc): 5.9 µM
Kd (human CD98hc [5]): 1.2 µM
B24: LLS2.43.5 (Fc fusion)
chain: B19 chain with A150M, R154Q, F155Y, I192V, W198H
notes: Fc part only; also called LLB2.43.5

Kd (human CD98hc [4]): 0.46 µM
B25: LLB2-10-8.d31 (Fc fusion)
chain: B19 chain with A150L, R154Q, F155Y, E156Q, I192V, W198Y, S212A
notes: Fc part only

Kd (cyno CD98hc): 6.9 µM
Kd (human CD98hc [5]): 1.7 µM
B26: LLS2.33.5 (Fc fusion)
chain: B19 chain with A150Q, N152S, R154Q, F155Y, I192V
notes: Fc part only; also called LLB2.33.5

Kd (cyno CD98hc): 3.5 µM
Kd (human CD98hc [5]): 1 µM
B27: LLB2.C.3 (Fc fusion)
chain: B19 chain with A150V, R154Q, F155Y, I192V
notes: Fc part only

Kd (cyno CD98hc): 4.5 µM
Kd (human CD98hc [5]): 2 µM
B29: LLS2.33.2 (Fc fusion)
chain: B19 chain with R154K, I192L
notes: Fc part only; also called LLB2.33.2

binding result (human CD98hc [4]): no binding
B32: LLB2-10-8.d27 (Fc fusion)
chain: B19 chain with A150L, E156Q, L157P, I192V, W198Y, S212A
notes: Fc part only

Kd (cyno CD98hc): 1.9 µM
Kd (human CD98hc [5]): 0.27 µM
B34: LLB2.10.8.14.3.N (Fc fusion)
chain: B19 chain with A150L, E156V, W198Y, Y206R, S212R
notes: as for B23

Kd (human CD98hc [4]): 3.1 µM
B36: LLB2-10-8.d32 (Fc fusion)
chain: B19 chain with A150L, N152S, R154Q, I192V, W198Y, S212A
notes: Fc part only

Kd (cyno CD98hc): 8.2 µM
Kd (human CD98hc [5]): 2.2 µM
B37: LLS2.33.8 (Fc fusion)
chain: B19 chain with R154K, E156R, I192L
notes: Fc part only; also called LLB2.33.8

binding result (human CD98hc [4]): no binding
B38: LLB2-10-8.d26 (Fc fusion)
chain: B19 chain with A150L, E156V, L157P, I192V, W198Y, S212A
notes: Fc part only

Further lines, the binder ahead of its results:

B1: 6.5.11.5.42.2.d1 (Fc fusion)
chain: B15 chain with D154N, P157K, N159T, V192L
Kd [1]: 3.6 µM

B2: 6.5.11.5.42.2.d2 (Fc fusion)
chain: B15 chain with S156Q, P157K, N159T, V192L
Kd [1]: 3.5 µM

B3: 6.5.11.5.42.2.d3 (Fc fusion)
chain: B15 chain with N159T, V192L
Kd [1]: 3.5 µM

B4: 42.2.3.1C mono (Fc fusion)
chain 1: APEAAGGPSVFLFPPKPKDTLMISRTPEVTCVVVDVSHEDPEVKFNWYVDGVEVHNAKTKPREEQYNSTYRVVSVLTVLHQDWLNGKEYKCKVSNKALGAPIEKTISKAKGQPREPQVYTLPPSRDELTKNQVSLWCLVKGFYPSDIAVEWFGTNKKETNYKTTPPVLDSDGSFFLYSKLTVDKSRWQQGNLFACEVMHEALHNHYTYKLLSLSPGK
chain 2: APEAAGGPSVFLFPPKPKDTLMISRTPEVTCVVVDVSHEDPEVKFNWYVDGVEVHNAKTKPREEQYNSTYRVVSVLTVLHQDWLNGKEYKCKVSNKALGAPIEKTISKAKGQPREPQVYTLPPSRDELTKNQVSLSCAVKGFYPSDIAVEWESNGQPENNYKTTPPVLDSDGSFFLVSKLTVDKSRWQQGNVFSCSVMHEALHNHYTQKSLSLSPGK
notes: knob+P329G+LALA with TfR site, hole+P329G+LALA without
Kd [2]: 1 µM
Kd [3]: 10 µM

B5: 6.5.11.5.42.2.d9 (Fc fusion)
chain: B15 chain with S156A, P157K, N159T, V192L
Kd [1]: 2 µM

B6: 6.5.11.5.42.2.d12 (Fc fusion)
chain: B15 chain with V192L
Kd [1]: 4.9 µM

B7: 6.5.11.5.42.2.d6 (Fc fusion)
chain: B15 chain with D154F, P157K, N159T, V192L
Kd [1]: 24 µM

B8: 42.2.1.2 mono (Fc fusion)
chain 1: B4 chain 1 with G153Y, T154D, N155D, K156S, E158L
chain 2: B4 chain 2
notes: as for B4
Kd [2]: 0.284 µM
Kd [3]: 7 µM

B9: 6.5.11.5.42.2.d8 (Fc fusion)
chain: B15 chain with G155A, P157K, N159T, V192L
Kd [1]: 4.4 µM

B10: 6.5.11.5.42.2.d4 (Fc fusion)
chain: B15 chain with S156G, P157K, N159T, V192L
Kd [1]: 8.7 µM

B11: 6.5.11.5.42.2.d10 (Fc fusion)
chain: B15 chain with P157T, N159T, V192L
Kd [1]: 1.8 µM

B12: 6.5.11.5.42.2.d14 (Fc fusion)
chain: B15 chain with D154N, S156Q, P157K, N159T, V192L
Kd [1]: 9.4 µM

B13: 6.5.11.5.42.2.d11 (Fc fusion)
chain: B15 chain with P157K, N159S, V192L
Kd [1]: 1.8 µM

B14: 42.2.1.20 mono (Fc fusion)
chain 1: B4 chain 1 with G153A, T154D, N155A, K156S, E158Q, T159R
chain 2: B4 chain 2
notes: as for B4
Kd [2]: 0.44 µM
Kd [3]: 7 µM

B16: 6.5.11.5.42.2.d7 (Fc fusion)
chain: B15 chain with D154A, P157K, N159T, V192L
Kd [1]: 29 µM

B17: 6.5.11.5.42.2.d15 (Fc fusion)
chain: B15 chain with D154F, S156Q, P157K, N159T, V192L
Kd [1]: 2 µM

B18: LLB2-10-8.d20 (Fc fusion)
chain: B19 chain with A150L, N152S, R154H, F155Y, I192V, W198Y, S212A
notes: Fc part only
Kd (human CD98hc [4]): 2.3 µM

B20: LLB2-10-8.d23 (Fc fusion)
chain: B19 chain with A150L, N152S, R154Q, F155Y, I192V, W198Y, S212A
notes: Fc part only
Kd (human CD98hc [4]): 1.8 µM

B21: LLB2-10-8.d29 (Fc fusion)
chain: B19 chain with A150L, N152S, E156Q, I192V, W198Y, S212A
notes: Fc part only
Kd (human CD98hc [4]): 1.3 µM

B28: LLB2-10-8.d30 (Fc fusion)
chain: B19 chain with A150L, R154Q, I192V, W198Y, S212A
notes: Fc part only
Kd (human CD98hc [4]): 1 µM

B30: LLB2-10-8.d21 (Fc fusion)
chain: B19 chain with A150L, N152S, E156V, I192V, W198Y, S212A
notes: Fc part only
Kd (human CD98hc [4]): 2 µM

B31: LLB2-10-8.d22 (Fc fusion)
chain: B19 chain with A150L, N152S, R154K, I192V, W198Y, S212A
notes: Fc part only
Kd (human CD98hc [4]): 5.2 µM

B33: LLB2-10-8.d24 (Fc fusion)
chain: B19 chain with A150L, F155Y, E156V, I192V, W198Y, S212A
notes: Fc part only
Kd (human CD98hc [4]): 2.6 µM

B35: LLB2-10-8.d25 (Fc fusion)
chain: B19 chain with A150L, E156Q, I192V, W198Y, S212A
notes: Fc part only
Kd (human CD98hc [4]): 0.67 µM

B39: LLB2-10-8.d28 (Fc fusion)
chain: B19 chain with A150L, N152S, F155Y, E156V, I192V, W198Y, S212A
notes: Fc part only
Kd (human CD98hc [4]): 4.2 µM
